Values quoted from earlier work in PMC7101603.

Target: Activin-A mature (Homo sapiens) (UniProt P08476)

- Kd: 100 nM
Substance: Activin βA pro-peptide pro-peptide (from UniProt P08476)
